Results: patent US20230017777, “MONOCYTE AND MACROPHAGE BINDING APTAMERS AND THEIR APPLICATION” (University of Washington, published 2023)

T1: CD14 (UniProt P08571 P08571:20-345)
T1 sequence: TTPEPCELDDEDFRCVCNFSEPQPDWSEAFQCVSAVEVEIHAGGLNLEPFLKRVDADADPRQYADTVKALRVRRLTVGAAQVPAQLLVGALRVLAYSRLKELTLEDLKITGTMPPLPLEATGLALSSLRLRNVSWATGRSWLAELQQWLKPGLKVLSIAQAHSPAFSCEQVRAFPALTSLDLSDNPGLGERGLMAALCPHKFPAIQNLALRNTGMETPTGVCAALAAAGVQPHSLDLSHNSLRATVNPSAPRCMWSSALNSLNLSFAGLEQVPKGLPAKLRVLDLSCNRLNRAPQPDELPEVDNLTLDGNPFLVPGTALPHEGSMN


What was measured:
CD14 [1] = molecular target: T1, CD14; assay: BLI; no significant binding over SCRM; figure legend calls it SPR, text says BLI (Octet Red96); conditions: label: Cy5
CD14 [2] = molecular target: T1, CD14; assay: BLI; nonspecific aptamer control; conditions: label: Cy5 (flow cytometry)

Row | Binder | binding result (CD14 [1]) | binding result (CD14 [2])
1 | A2 (ssDNA) DNA: ATCCAGAGTGACGCAGCAGAAGAGTAGATGAAACGTTTTTTCGCCCGATAAAAGGGACGTGCGTCAGACATGGACACGGTGGCTTAGT | no binding | –
2 | SCRM (scrambled / nonspecific control aptamer) (ssDNA) DNA: ATCCAGAGTGACGCAGCAATGATAGTGACGTACGGACTAGGGATCACCCATATCATGTAGAGGAAGTACGTGGACACGGTGGCTTAGT | – | no binding
